Assay results published in IntAct's records for PubMed 12529446.

Molecular target: gef1_schpo gef1 (UniProt Q09763)
Sequence (Q09763 whole entry): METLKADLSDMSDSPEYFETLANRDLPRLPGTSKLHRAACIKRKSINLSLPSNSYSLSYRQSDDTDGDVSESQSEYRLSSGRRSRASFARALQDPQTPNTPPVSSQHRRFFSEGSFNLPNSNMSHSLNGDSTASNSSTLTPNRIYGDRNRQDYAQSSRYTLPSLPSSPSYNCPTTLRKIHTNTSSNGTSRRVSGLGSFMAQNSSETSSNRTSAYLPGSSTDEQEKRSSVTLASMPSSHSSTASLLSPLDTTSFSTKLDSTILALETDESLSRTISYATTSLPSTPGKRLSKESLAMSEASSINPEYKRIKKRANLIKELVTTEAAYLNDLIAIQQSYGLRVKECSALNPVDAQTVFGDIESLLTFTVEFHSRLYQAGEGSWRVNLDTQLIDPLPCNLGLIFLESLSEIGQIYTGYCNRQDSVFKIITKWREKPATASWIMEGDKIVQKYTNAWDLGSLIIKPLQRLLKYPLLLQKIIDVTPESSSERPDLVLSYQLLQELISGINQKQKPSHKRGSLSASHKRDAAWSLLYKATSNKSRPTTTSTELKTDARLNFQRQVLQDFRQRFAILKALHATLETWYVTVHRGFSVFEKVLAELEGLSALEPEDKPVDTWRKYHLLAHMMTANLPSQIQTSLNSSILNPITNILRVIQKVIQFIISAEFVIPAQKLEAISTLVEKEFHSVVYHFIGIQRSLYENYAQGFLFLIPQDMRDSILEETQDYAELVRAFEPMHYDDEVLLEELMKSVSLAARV

Cell division control protein 42 homolog (Schizosaccharomyces pombe (strain ATCC 38366 / 972)), Q01112 T17N, sequence (Q01112 whole entry T17N): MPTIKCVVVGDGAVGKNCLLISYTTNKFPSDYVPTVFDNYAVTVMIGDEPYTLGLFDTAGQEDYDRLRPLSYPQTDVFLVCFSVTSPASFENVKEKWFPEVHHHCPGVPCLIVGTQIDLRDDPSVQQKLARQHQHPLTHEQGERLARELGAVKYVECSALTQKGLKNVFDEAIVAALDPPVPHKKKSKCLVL
Cell division control protein 42 homolog (Schizosaccharomyces pombe (strain ATCC 38366 / 972)), Q01112 D118A, sequence (Q01112 whole entry D118A): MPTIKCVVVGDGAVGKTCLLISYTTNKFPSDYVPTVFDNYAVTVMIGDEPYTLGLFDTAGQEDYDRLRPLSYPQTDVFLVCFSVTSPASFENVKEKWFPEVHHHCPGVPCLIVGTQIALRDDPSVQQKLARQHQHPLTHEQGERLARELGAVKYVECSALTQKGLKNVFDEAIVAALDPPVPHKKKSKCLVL

Row | Substance | effect of a mutation on the interaction
1 | Cell division control protein 42 homolog (Schizosaccharomyces pombe (strain ATCC 38366 / 972)), Q01112 D118A | increasing interaction
2 | Cell division control protein 42 homolog (Schizosaccharomyces pombe (strain ATCC 38366 / 972)), Q01112 T17N | increasing interaction
